Source: US20030175679A1, “Methods for cell screening of compounds capable of modulating the activity of ubiquitin-ligase scf complexes and their uses” (priority 1999, published 2003)

Test system: Yeast cells
Experiment: Stability of Ha-labeled hybrid proteins expressed from the GAL1 promoter, measured with anti-Ha antibodies
Assay type: cell-based, S. cerevisiae
[1] = in the absence of methionine (-Met)
[2] = repressive conditions, in the presence of methionine (+Met)

Molecule | half-life of the hybrid protein [1] [min] | half-life of the hybrid protein [2]
Ha-Met28: full-length Met28 protein with a repetition of 3 hemagglutinin (Ha) antigenic units at its amino-terminal end (protein, UniProt P40573 1-187, looked up, full-length N-terminal 3x HA tag, full-length Met28 protein with a repetition of 3 hemagglutinin (Ha) antigenic units at its amino-terminal end) MSAKQGWEKKSTNIDIASRKGMNVNNLSEHLQNLISSDSELGSRLLSLLLVSSGNAEELISMINNGQDVSQFKKLREPRKGKVAATTAVVVKEEEAPVSTSNELDKIKQERRRKNTEASQRFRIRKKQKNFENMNKLQNLNTQINKLRDRIEQLNKENEFWKAKLNDINEIKSLKLLNDIKRRNMGR | ~20 | do not modify the half-life
Ha-Met4: Met4 protein derivative with three hemagglutinin (Ha) antigenic units at its amino-terminal end, expressed in yeast under the GAL1 promoter (protein, UniProt P32389 1-672, looked up, N-terminal 3x HA tag, Met4 protein derivative with three hemagglutinin (Ha) antigenic units at its amino-terminal end, expressed in yeast under the GAL1 promoter) Transcriptional activator of …: MKQEQSHEGDSYSTEFINLFGKDTATHPSSNNGANNNGMGSTNSLDQFVATASSSSSLVTSSENRRPLIGDVTNRGNTNLYDHAVTPEILLEQLAYVDNFIPSLDNEFSNVDWNVNTTHNNANNNGADTFSSINANPFDLDEQLAIELSAFADDSFIFPDEDKPSNNNNNSNNGNDDHSNHDVLHEDPSTNNRQRNPHFLTQRRNTFLTSQYDQSKSRFSSKNKRNGNNGETNNFGDNMQNNHPFEPNFMGSPSQFPADATNMTSIDHGGFTNVDITSTENNTTGDNGVDALSNLLHRTTHTPNRSSPLSNVTSAQNSSSQQRKHSESKVDSNSDNNSSNKAPNITVPDYSIIPTSVLVTLLPRVNVPNGAYNSLISAGFDNDQIDAIAAIMAYHHQKKIRENNSNNNKNINTNDSQEAPILKNINELLSVLIPPSPAETRGPTTLSTSPSFNEHGVVAEASFLSSILELGIKHPKSNNIHNQRQPSRNDHKISRESDGNNGNDNVHHNNAVIKSSTTRGDEIAKIRSEPTLNASSSDHKENSLKRSHSGDLKNKKVPVDRKYSDNEDDEYDDADLHGFEKKQLIKKELGDDDEDLLIQSKKSHQKKKLKEKELESSIHELTEIAASLQKRIHTLETENKLLKNLVLSSGETEGIKKAESLKKQIFEKVQKE | ~20 | ~5 min
Ha-Met30: full-length Met30 protein with a repetition of 3 hemagglutinin (Ha) antigenic units at its amino-terminal end (protein, UniProt P39014 1-640, looked up, full-length N-terminal 3x HA tag, full-length Met30 protein with a repetition of 3 hemagglutinin (Ha) antigenic units at its amino-terminal end) MRRERQRMMSFEDKDKDDLDNSNSNNSSEMTDTAMMPPLKRLLITGSSDDLAQGSSGKKKMTMATRSPSSSPDLATNDSGTRVQPLPEYNFTKFCYRHNPDIQFSPTHTACYKQDLKRTQEINANIAKLPLQEQSDIHHIISKYSNSNDKIRKLILDGILSTSCFPQLSYISSLVTHMIKIDFISILPQELSLKILSYLDCQSLCNATRVCRKWQKLADDDRVWYHMCEQHIDRKCPNCGWGLPLLHMKRARIQQNSTGSSSNADIQTQTTRPWKVIYRERFKVESNWRKGHCRIQEFKGHMDGVLTLQFNYRLLFTGSYDSTIGIWDLFTGKLIRRLSGHSDGVKTLYFDDRKLITGSLDKTIRVWNYITGECISTYRGHSDSVLSVDSYQKVIVSGSADKTVKVWHVESRTCYTLRGHTEWVNCVKLHPKSFSCFSCSDDTTIRMWDIRTNSCLKVFRGHVGQVQKIIPLTIKDVENLATDNTSDGSSPQDDPTMTDGADESDTPSNEQETVLDENIPYPTHLLSCGLDNTIKLWDVKTGKCIRTQFGHVEGVWDIAADNFRIISGSHDGSIKVWDLQSGKCMHTFNGRRLQRETQHTQTQSLGDKVAPIACVCIGDSECFSGDEFGCVKMYKFDLND | ~20 | do not modify the half-life
